The RNAGym collection of RNA variant scans (doi:10.7554/elife.80360)

B1: Hairpin Ribozyme (parent)
chain: GUCCUCUUUCACGUGCGCGUGAAAGAGAGAAGUGAACCAGAGAAACACACGUUGUGGUAUAUUACCUGGUA

Variants of: B1
Assay: self-cleavage, relative activity (ratio to wild type); higher = more cleavage; co-transcriptional
Variant A28G A36C has a self-cleavage of 0.778.
With G27U G57U the self-cleavage was 0.144.
G27U G57A gave a self-cleavage of 0.209.
Work on A26C U62A yielded a self-cleavage of 0.269.
Work on A26C U62C yielded a self-cleavage of 0.213.
G27C G51A showed a self-cleavage of 0.266.
Work on G27A G34A yielded a self-cleavage of 0.551.
In the case of A26U A64G, the self-cleavage is reported as 0.399.
In the case of A28C G69U, the self-cleavage is reported as 0.0989.
In the case of G27C G57C, the self-cleavage is reported as 0.0926.
G27C G57U gave a self-cleavage of 0.174.
Work on G27C G57A yielded a self-cleavage of 0.15.
A26G U33G showed a self-cleavage of 0.0904.
Work on A26G U33C yielded a self-cleavage of 0.0771.
With G27U C38G the self-cleavage was 0.17.
In the case of G27U C38A, the self-cleavage is reported as 0.12.
Work on A26G A49G yielded a self-cleavage of 0.665.
A28G C37U gave a self-cleavage of 0.644.
G27A A39G showed a self-cleavage of 0.121.
In the case of G27A A39U, the self-cleavage is reported as 0.166.
Work on A28C U60G yielded a self-cleavage of 0.383.
A28C U60C showed a self-cleavage of 0.558.
For A26U C38A, the self-cleavage was 0.188.
Work on G27C G56A yielded a self-cleavage of 0.0609.
In the case of G27C G56U, the self-cleavage is reported as 0.131.
Variant A26C A71C has a self-cleavage of 1.08.
With G27A G68A the self-cleavage was 0.241.
G27U U70G gave a self-cleavage of 0.228.
G27U A31U gave a self-cleavage of 0.119.
Work on G27U A31C yielded a self-cleavage of 0.205.
A26U A35G showed a self-cleavage of 0.786.
With A26C U53A the self-cleavage was 0.521.
Variant A28C G29A has a self-cleavage of 0.199.
With G27U G69C the self-cleavage was 0.2.
G27U G69A gave a self-cleavage of 0.0822.
Work on G27U G69U yielded a self-cleavage of 0.152.
Work on A26C G42U yielded a self-cleavage of 0.307.
In the case of A26C G42A, the self-cleavage is reported as 0.12.
With G27A A36C the self-cleavage was 0.253.
G27A A36G gave a self-cleavage of 0.42.
With A26U G68U the self-cleavage was 0.207.
With A26U G68C the self-cleavage was 0.103.
In the case of A28C U33A, the self-cleavage is reported as 0.145.
For A28C U33G, the self-cleavage was 0.
Work on A26C U52G yielded a self-cleavage of 0.409.
In the case of A26C U52A, the self-cleavage is reported as 0.599.
Work on A28G C48U yielded a self-cleavage of 0.276.
Variant G27A A43G has a self-cleavage of 0.0988.
Work on A26G C38U yielded a self-cleavage of 0.297.
With A26G C38G the self-cleavage was 0.138.
In the case of A28G G51A, the self-cleavage is reported as 1.25.
With A26G A64C the self-cleavage was 0.303.
Variant A26G A64G has a self-cleavage of 0.55.
With A26G A64U the self-cleavage was 0.271.
A26G C66A showed a self-cleavage of 0.171.
A26G C66U showed a self-cleavage of 0.429.
For A26U U67A, the self-cleavage was 0.196.
A26U G56C gave a self-cleavage of 0.135.
Work on G27C G68C yielded a self-cleavage of 0.0698.
G27C G68A showed a self-cleavage of 0.105.
For A26G G34C, the self-cleavage was 1.01.
A28G C65U showed a self-cleavage of 0.498.
Work on A26U A61U yielded a self-cleavage of 0.15.
Work on G27C A64G yielded a self-cleavage of 0.186.
Work on A28C A30C yielded a self-cleavage of 0.0316.
A28C A30G showed a self-cleavage of 0.136.
A28C A30U gave a self-cleavage of 0.126.
With A28G G42C the self-cleavage was 0.47.
In the case of G27A G56U, the self-cleavage is reported as 0.156.
For G27A G56C, the self-cleavage was 0.101.
In the case of G27U G40A, the self-cleavage is reported as 0.117.
A28G C46U gave a self-cleavage of 0.137.
In the case of A26G G29A, the self-cleavage is reported as 0.159.
Work on A26G G29C yielded a self-cleavage of 0.139.
Work on A28C G34A yielded a self-cleavage of 0.753.
A28C G34U gave a self-cleavage of 1.23.
With A28C G40A the self-cleavage was 0.131.
Variant A26U G54U has a self-cleavage of 0.34.
Variant A26C G68U has a self-cleavage of 0.186.
With A28C U55A the self-cleavage was 0.155.
Work on A26U C48A yielded a self-cleavage of 0.153.
Work on A28G A41U yielded a self-cleavage of 1.05.
Variant G27A C65G has a self-cleavage of 0.161.
Variant A28C G54C has a self-cleavage of 0.187.
For A28C G54A, the self-cleavage was 0.301.
In the case of A26U G27A, the self-cleavage is reported as 0.228.
In the case of A28G C50A, the self-cleavage is reported as 0.415.
Work on A26G U63C yielded a self-cleavage of 0.225.
A26G U63A showed a self-cleavage of 0.101.
Variant A26U A30G has a self-cleavage of 0.142.
In the case of A28C G56A, the self-cleavage is reported as 0.137.
For A28C G56U, the self-cleavage was 0.0871.
In the case of G27U C37G, the self-cleavage is reported as 0.109.
Variant G27U C37U has a self-cleavage of 0.22.
Variant G27U G51U has a self-cleavage of 0.402.
With G27C A47C the self-cleavage was 0.0432.
Variant A26C G69A has a self-cleavage of 0.327.
With G27C A49U the self-cleavage was 0.129.
With A28G G29A the self-cleavage was 0.13.
A28C G68U showed a self-cleavage of 0.214.
Work on A28C G68A yielded a self-cleavage of 0.182.
A26G A28G gave a self-cleavage of 1.12.
In the case of G27C C66U, the self-cleavage is reported as 0.162.
For G27C C66A, the self-cleavage was 0.157.
G27U A36C gave a self-cleavage of 0.0992.
G27U A36U gave a self-cleavage of 0.0647.
Work on G27U A36G yielded a self-cleavage of 0.393.
In the case of G27C U60C, the self-cleavage is reported as 0.333.
Variant G27C G40C has a self-cleavage of 0.107.
Work on G27C G40A yielded a self-cleavage of 0.0679.
A26C U63C gave a self-cleavage of 0.177.
Work on A26U G40U yielded a self-cleavage of 0.131.
A26U G40A showed a self-cleavage of 0.175.
In the case of G27C A71G, the self-cleavage is reported as 0.143.
For G27C A71U, the self-cleavage was 0.178.
Work on G27A G32U yielded a self-cleavage of 0.0607.
A26U A43G showed a self-cleavage of 0.121.
In the case of A26U A43U, the self-cleavage is reported as 0.139.
Variant A28G A31C has a self-cleavage of 0.113.
In the case of A26G A39C, the self-cleavage is reported as 0.571.
Work on G27C A39C yielded a self-cleavage of 0.0945.
For A26U G69U, the self-cleavage was 0.225.
A26G U52A showed a self-cleavage of 0.896.
G27C G29U showed a self-cleavage of 0.179.
Variant G27C G29A has a self-cleavage of 0.138.
A26C C66A showed a self-cleavage of 0.34.
Work on A26C C66G yielded a self-cleavage of 0.12.
With A28G G40C the self-cleavage was 0.166.
For A28G A39U, the self-cleavage was 0.536.
In the case of A28G A39C, the self-cleavage is reported as 0.748.
Work on G27A A64G yielded a self-cleavage of 0.303.
A26U A47G gave a self-cleavage of 0.142.
For A26C G34U, the self-cleavage was 1.03.
Work on A28C U70C yielded a self-cleavage of 0.426.
With A28C U70G the self-cleavage was 0.322.
Work on A26U U52A yielded a self-cleavage of 0.788.
In the case of A26C U55G, the self-cleavage is reported as 0.297.
With A28G A44C the self-cleavage was 0.202.
With G27C A41G the self-cleavage was 0.234.
Work on G27C C38U yielded a self-cleavage of 0.131.
G27C C38G showed a self-cleavage of 0.0571.
A28G A43C gave a self-cleavage of 0.153.
For A26U C37U, the self-cleavage was 0.466.
In the case of A26U U58A, the self-cleavage is reported as 0.391.
For A26C C37U, the self-cleavage was 0.446.
For G27A A35C, the self-cleavage was 0.485.
Work on G27U A49G yielded a self-cleavage of 0.214.
Variant G27A U33C has a self-cleavage of 0.0597.
Variant G27A U33G has a self-cleavage of 0.0835.
Work on A26U G29C yielded a self-cleavage of 0.135.
With A26U G29U the self-cleavage was 0.151.
A28G G68U gave a self-cleavage of 0.372.
Work on G27C A30C yielded a self-cleavage of 0.0463.
A28C A59C gave a self-cleavage of 0.
In the case of A26U G42A, the self-cleavage is reported as 0.153.
With A28C G57C the self-cleavage was 0.145.
A28C G57U gave a self-cleavage of 0.0228.
A28C A39G showed a self-cleavage of 0.171.
Variant A28C A61G has a self-cleavage of 0.1.
With A28G G56C the self-cleavage was 0.0641.
Work on A28G G56U yielded a self-cleavage of 0.165.
In the case of A28G G56A, the self-cleavage is reported as 0.296.
With A26G G32A the self-cleavage was 0.103.
A26C U70C showed a self-cleavage of 0.728.
With A26U U63C the self-cleavage was 0.199.
Variant G27U A39G has a self-cleavage of 0.149.
Variant G27U A59U has a self-cleavage of 0.146.
